Results on one substance are retold here after article PMC11367651.

What all share (conditions): reference: unphosphorylated MAP2c; sites Y67
Assay [1] deals with Grb2 (growth factor receptor-bound protein 2) SH2 domain, 57-158 (UniProt P62993). The assay can be described thus: NMR HNCO chemical shift perturbation of MAP2c.
Assay [2] has the same target. The experiment in a line: NMR HNCO peak broadening of labeled MAP2c.
Assay [3] shares this target. The experiment in a line: 1H,15N HSQC titration of 15N-Grb2-SH2 with MAP2c.

Regarding “MAP2c (microtubule-associated protein 2c) (from UniProt P15146) Fyn-phosphorylated MAP2c”, the “binding against the reference” value in assay [1] is “gained”; in assay [2] it was “stronger”. Further, the KD result in assay [3] is given as “gained; reference No significant CCSP”.
